Laboratory results from US20110118447A1.
Numbering of substitutions follows the chain as printed. Names may count otherwise.

B1: C5A (XPA23) VH G55Y (antibody, V domains shown)
VH: EVQLLESGGGLVQPGGSLRLSCAASGFTFSKYFMFWVRQAPGKGLEWVSVISPSYGMTRYADSVKGRFTISRDNSKNTLYLQMNSLRAEDTAVYYCARVGYGGNSDYWGQGTLVTVSS
VL: DIQMTQSPSSVSASVGDRLTIICRASQDINRWLAWYQQTPGNAPKLLIHSATSLQSGVPSRFSGSGSGTDFTLTINSLQPEDFATYYCQQADSFPLTFGGGTKVEIK
B2: C5A (XPA23) VH V99T (antibody, V domains shown)
VH: B1 VH with Y55G, V99T
VL: B1 VL
B3: C5A (XPA23) VH M57T (antibody, V domains shown)
VH: B1 VH with Y55G, M57T
VL: B1 VL
B4: C5A (XPA23) VH Y101N (antibody, V domains shown)
VH: B1 VH with Y55G, Y101N
VL: B1 VL
B5: C5A (XPA23) VH G56K (antibody, V domains shown)
VH: B1 VH with Y55G, G56K
VL: B1 VL
B6: C5A (XPA23) VH T58D (antibody, V domains shown)
VH: B1 VH with Y55G, T58D
VL: B1 VL
B7: C5A (XPA23) VH G100H (antibody, V domains shown)
VH: B1 VH with Y55G, G100H
VL: B1 VL
B8: C5A (XPA23) VH M57Y (antibody, V domains shown)
VH: B1 VH with Y55G, M57Y
VL: B1 VL
B9: C5A (XPA23) VH G56H (antibody, V domains shown)
VH: B1 VH with Y55G, G56H
VL: B1 VL
B10: C5A (XPA23) VH Y101T (antibody, V domains shown)
VH: B1 VH with Y55G, Y101T
VL: B1 VL
B11: C5A (XPA23) VH M57Q (antibody, V domains shown)
VH: B1 VH with Y55G, M57Q
VL: B1 VL
B12: C5A (XPA23) VH M57R (antibody, V domains shown)
VH: B1 VH with Y55G, M57R
VL: B1 VL
B13: C5A (XPA23) VH G56R (antibody, V domains shown)
VH: B1 VH with Y55G, G56R
VL: B1 VL
B14: C5A (XPA23) VH M57N (antibody, V domains shown)
VH: B1 VH with Y55G, M57N
VL: B1 VL
B15: C5A (XPA23) VH M57H (antibody, V domains shown)
VH: B1 VH with Y55G, M57H
VL: B1 VL
B16: C5A (XPA23) VH T58S (antibody, V domains shown)
VH: B1 VH with Y55G, T58S
VL: B1 VL
B17: C5A (XPA23) VH G100Y (antibody, V domains shown)
VH: B1 VH with Y55G, G100Y
VL: B1 VL
B18: C5A (XPA23) VH R59Q (antibody, V domains shown)
VH: B1 VH with Y55G, R59Q
VL: B1 VL
B19: C5A (XPA23) VH G56N (antibody, V domains shown)
VH: B1 VH with Y55G, G56N
VL: B1 VL
B20: C5A (XPA23) VH G56T (antibody, V domains shown)
VH: B1 VH with Y55G, G56T
VL: B1 VL
B21: C5A (XPA23) VH G56Y (antibody, V domains shown)
VH: B1 VH with Y55G, G56Y
VL: B1 VL
B22: C5A (XPA23) VH T58R (antibody, V domains shown)
VH: B1 VH with Y55G, T58R
VL: B1 VL
B23: C5A (XPA23) VH Y101H (antibody, V domains shown)
VH: B1 VH with Y55G, Y101H
VL: B1 VL
B24: C5A (XPA23) VH G56D (antibody, V domains shown)
VH: B1 VH with Y55G, G56D
VL: B1 VL
B25: C5A (XPA23) VH T58Y (antibody, V domains shown)
VH: B1 VH with Y55G, T58Y
VL: B1 VL
B26: C5A (XPA23) VH R59T (antibody, V domains shown)
VH: B1 VH with Y55G, R59T
VL: B1 VL
B27: C5A (XPA23) VH G100S (antibody, V domains shown)
VH: B1 VH with Y55G, G100S
VL: B1 VL
B28: C5A (XPA23) VH R59K (antibody, V domains shown)
VH: B1 VH with Y55G, R59K
VL: B1 VL
B29: C5A (XPA23) VH G56Q (antibody, V domains shown)
VH: B1 VH with Y55G, G56Q
VL: B1 VL
B30: C5A (XPA23) VH R59N (antibody, V domains shown)
VH: B1 VH with Y55G, R59N
VL: B1 VL
B31: C5A (XPA23) VH T58N (antibody, V domains shown)
VH: B1 VH with Y55G, T58N
VL: B1 VL
B32: C5A (XPA23) VH G100T (antibody, V domains shown)
VH: B1 VH with Y55G, G100T
VL: B1 VL
B33: C5A (XPA23) VH M57K (antibody, V domains shown)
VH: B1 VH with Y55G, M57K
VL: B1 VL
B34: C5A (XPA23) VH R59S (antibody, V domains shown)
VH: B1 VH with Y55G, R59S
VL: B1 VL
B35: C5A (XPA23) VH Y101E (antibody, V domains shown)
VH: B1 VH with Y55G, Y101E
VL: B1 VL
B36: C5A (XPA23) VH Y101R (antibody, V domains shown)
VH: B1 VH with Y55G, Y101R
VL: B1 VL
B37: C5A (XPA23) VH T58H (antibody, V domains shown)
VH: B1 VH with Y55G, T58H
VL: B1 VL
B38: C5A (XPA23) VH G56E (antibody, V domains shown)
VH: B1 VH with Y55G, G56E
VL: B1 VL
B39: C5A (XPA23) VH M57S (antibody, V domains shown)
VH: B1 VH with Y55G, M57S
VL: B1 VL

Legend:
[1] = target: binding partner of C5A (XPA23); assay: Biacore, K-off
[2] = target: binding partner of C5A (XPA23); assay: Biacore

Row | Binder | fold difference in affinity vs original [1] | fold affinity vs original [2] | fold difference in affinity vs original [2]
1 | B1 | 0.08 fold | 0.08 fold | 
2 | B2 | 0.1 fold |  | 0.1 fold
3 | B3 | 0.06 fold |  | 0.06 fold
4 | B4 | 0.06 fold | 0.06 fold | 
5 | B5 | 2.05 fold | 2.05 fold | 
6 | B6 | 0.12 fold | 0.12 fold | 
7 | B7 | 0.06 fold | 0.06 fold | 
8 | B8 | 0.86 fold | 0.86 fold | 
9 | B9 | 0.82 fold | 0.82 fold | 
10 | B10 | 0.06 fold |  | 0.06 fold
11 | B11 | 0.02 fold | 0.02 fold | 
12 | B12 | 0.06 fold | 0.06 fold | 
13 | B13 | 2.11 fold | 2.11 fold | 
14 | B14 | 0.03 fold | 0.03 fold | 
15 | B15 | 0.08 fold | 0.08 fold | 
16 | B16 | 0.82 fold | 0.82 fold | 
17 | B17 | 0.09 fold | 0.09 fold | 
18 | B18 | 0.86 fold | 0.86 fold | 
19 | B19 | 1.06 fold | 1.06 fold | 
20 | B20 | 1.11 fold |  | 1.11 fold

Row | Binder | fold difference in affinity vs original [1] | fold affinity vs original [2] | fold difference in affinity vs original [2]
21 | B21 | 1.27 fold | 1.27 fold | 
22 | B22 | 1.14 fold | 1.14 fold | 
23 | B23 | 0.04 fold | 0.04 fold | 
24 | B24 | 0.05 fold | 0.05 fold | 
25 | B25 | 1.01 fold | 1.01 fold | 
26 | B26 | 0.76 fold |  | 0.76 fold
27 | B27 | 2.8 fold | 2.8 fold | 
28 | B28 | 0.94 fold | 0.94 fold | 
29 | B29 | 1.31 fold | 1.31 fold | 
30 | B30 | 0.86 fold | 0.86 fold | 
31 | B31 | 0.9 fold | 0.9 fold | 
32 | B32 | 0.12 fold |  | 0.12 fold
33 | B33 | 0.04 fold | 0.04 fold | 
34 | B34 | 0.13 fold | 0.13 fold | 
35 | B35 | 0.03 fold | 0.03 fold | 
36 | B36 | 0.85 fold | 0.85 fold | 
37 | B37 | 0.98 fold | 0.98 fold | 
38 | B38 | 1.21 fold | 1.21 fold | 
39 | B39 | 0.04 fold | 0.04 fold | 
